{
  "source": "patent US20250346646A1",
  "about": "“COMPOUNDS USEFUL TO TREAT METABOLIC DISORDERS” (President and Fellows of Harvard College, priority 2016, published 2025)",
  "molecules": {"B1": {"name": "CA33: low-affinity anti-aP2 monoclonal antibody, rabbit-mouse hybrid, produced and purified by UCB; VL Seq. ID 28, VH Seq. ID 41 (antibody, V domains shown)", "VH": "QSVEESGGRLVTPGTPLTLTCTVSGFSLSTYYMSWVRQAPGKGLEWIGIIYPSGSTYCASWAKGRFTISKASTTVDLKITSPTTEDTATYFCARPDNDGTSGYLSGFGLWGQGTLVTVSS", "VL": "DVVMTQTPASVSEPVGGTVTIKCQASEDISRYLVWYQQKPGQPPKRLIYKASTLASGVPSRFKGSGSGTDFTLTISDLECDDAATYYCQCTYGTYAGSFFYSFGGGTEVVVE", "modifications": "Rabbit Ab 909 VH region; Rabbit Ab 909 VL-region"}},
  "key": {"human glucagon receptor": {"molecular_target": "human glucagon receptor (Homo sapiens, UniProt P47871)", "sequence (P47871 26-477)": "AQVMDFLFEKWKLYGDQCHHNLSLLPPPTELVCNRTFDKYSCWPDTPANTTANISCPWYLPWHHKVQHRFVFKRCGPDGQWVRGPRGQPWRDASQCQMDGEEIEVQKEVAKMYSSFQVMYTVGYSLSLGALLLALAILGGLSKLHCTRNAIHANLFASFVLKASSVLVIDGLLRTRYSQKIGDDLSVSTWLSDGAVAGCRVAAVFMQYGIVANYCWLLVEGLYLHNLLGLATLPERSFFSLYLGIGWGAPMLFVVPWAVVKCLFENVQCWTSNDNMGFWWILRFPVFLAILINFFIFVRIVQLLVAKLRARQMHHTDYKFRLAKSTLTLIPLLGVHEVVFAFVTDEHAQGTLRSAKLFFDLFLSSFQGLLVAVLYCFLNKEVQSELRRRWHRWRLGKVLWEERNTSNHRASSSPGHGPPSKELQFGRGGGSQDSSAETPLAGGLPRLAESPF", "assay": "cAMP-response element luciferase reporter in CHO-K1 cells expressing human GCGR-GFP", "format": "cell-based", "conditions": "1 ug/ml aP2, 25 nM glucagon, 20 μg/ml antibody; 4 hours post stimulation", "procedure": "Bar graphs represent mean±standard deviation (s.d.), n=4-5 per group. *P<0.05, **P<0.01, ***P≤0.001, ****P≤0.0001, ns P>0.05. Multiple group comparisons were done using one-way ANOVA statistics with Tukey post-test correction. Graphs show data as mean±standard error of mean (s.e.m.), analyzed using two-way ANOVA.\nDuring cloning hexahistadine and WELQ protease site was added for protein purification. Murine aP2 gene was cloned into pet21+ vector after the hexahistadine tag and TEV protease site for ease of purification.\nPlasmids were transfected using Lipofectamine (Invitrogen) according to manufacturer's instructions. Transiently transfected cells were grown in appropriate selection antibiotics where applicable for stable cell line generation. Following three passages under selection media, single cell colonies were picked and expanded for experimentation after validation."}, "[1]": {"test_system": "HFD-induced obese aP2−/− mice", "assay": "CA33 treatment of HFD-induced obese aP2−/− mice", "format": "in vivo, mouse", "procedure": "FIG. 11A is a bar graph showing fasting blood glucose (mg/dL) in HFD-induced obese aP2−/− mice before (open bars) and after CA33 antibody or vehicle treatment for three weeks (solid bars).\nThe test was performed after 2 weeks of vehicle (triangles) or CA33 antibody treatment (squares) in aP2−/− mice.\nAnimal care and experimental procedures were performed with approval from animal care committees of Harvard University. Male mice (leptin-deficient (ob/ob) and diet induced obese (DIO) mice with C57BL/6J background) were purchased from The Jackson Laboratory (Bar Harbor, ME) and kept on a 12-hour light/dark cycle. DIO mice with C57BL/6J background were maintained on high-fat diet (60% kcal fat, Research Diets, Inc., D12492i) for 12 to 15 weeks before starting treatment except in clamp studies, for which they were on HFD for 20 weeks. Leptin-deficient (ob/ob) mice were maintained on regular chow diet (RD, PicoLab 5058 Lab Diet). Animals used were 18 to 31 weeks of age for dietary models and 9 to 12 weeks of age for the ob/ob model. In all experiments, at least 7 mice in each group were used, unless otherwise stated in the text. The mice were treated with 150 μl PBS (vehicle) or 1.5 mg/mouse (˜33 mg/kg) anti-aP2 monoclonal antibody in 150 μl PBS by twice weekly subcutaneous injections for 3 to 5 weeks. Before and after the treatment, blood samples were collected from the tail after 6 hours of daytime food withdrawal. Body weights were measured weekly in the fed state. Blood glucose levels were measured weekly after 6 hours of food withdrawal or after 16 hours overnight fast. After 2 weeks of treatment, glucose tolerance tests were performed by intraperitoneal glucose injections (0.75 g/kg for DIO, 0.5 g/kg for ob/ob mice). After 3 weeks of treatment, insulin tolerance tests were performed in DIO mice by intraperitoneal insulin injections (0.75 IU/kg). After 5 weeks of treatment, hyperinsulinemic-euglycemic clamp experiments were performed in DIO mice as previously described (Furuhashi et al., (2007) Nature 447, 959-965; Maeda et al., (2005) Cell metabolism 1, 107-119). […]"}, "ob/ob mice": {"test_system": "ob/ob mice", "assay": "CA33 treatment of leptin-deficient ob/ob mice", "format": "in vivo, mouse", "procedure": "FIG. 11C is a bar graph showing fasting blood glucose levels (mg/dl) in ob/ob mice before (open bars) and after (solid bars) 3 weeks of CA33 antibody or vehicle treatment (n=10 mice per group). **p<0.01.\nThe test was performed after 2 weeks of vehicle (triangles) or CA33 antibody treatment (squares) in aP2−/− mice. *p<0.05.\n(§1) The test was performed after 3 weeks of vehicle (triangles) or CA33 antibody treatment (squares) in aP2−/− mice.\nas §1\nAnimal care and experimental procedures were performed with approval from animal care committees of Harvard University. Male mice (leptin-deficient (ob/ob) and diet induced obese (DIO) mice with C57BL/6J background) were purchased from The Jackson Laboratory (Bar Harbor, ME) and kept on a 12-hour light/dark cycle. DIO mice with C57BL/6J background were maintained on high-fat diet (60% kcal fat, Research Diets, Inc., D12492i) for 12 to 15 weeks before starting treatment except in clamp studies, for which they were on HFD for 20 weeks. Leptin-deficient (ob/ob) mice were maintained on regular chow diet (RD, PicoLab 5058 Lab Diet). Animals used were 18 to 31 weeks of age for dietary models and 9 to 12 weeks of age for the ob/ob model. In all experiments, at least 7 mice in each group were used, unless otherwise stated in the text. The mice were treated with 150 μl PBS (vehicle) or 1.5 mg/mouse (˜33 mg/kg) anti-aP2 monoclonal antibody in 150 μl PBS by twice weekly subcutaneous injections for 3 to 5 weeks. Before and after the treatment, blood samples were collected from the tail after 6 hours of daytime food withdrawal. Body weights were measured weekly in the fed state. Blood glucose levels were measured weekly after 6 hours of food withdrawal or after 16 hours overnight fast. After 2 weeks of treatment, glucose tolerance tests were performed by intraperitoneal glucose injections (0.75 g/kg for DIO, 0.5 g/kg for ob/ob mice). After 3 weeks of treatment, insulin tolerance tests were performed in DIO mice by intraperitoneal insulin injections (0.75 IU/kg). After 5 weeks of treatment, hyperinsulinemic-euglycemic clamp experiments were performed in DIO mice as previously described (Furuhashi et al., (2007) Nature 447, 959-965; Maeda et al., (2005) Cell metabolism 1, 107-119).\nFinally, the effect of CA33 in a second model of severe genetic obesity and insulin resistance using leptin-deficient ob/ob mice was examined. Strikingly, hyperglycemia in the ob/ob mice was normalized in CA33-treated mice compared to controls (FIG. 11C)."}, "aP2": {"molecular_target": "aP2 (Homo sapiens, UniProt P15090)", "sequence (P15090 whole entry)": "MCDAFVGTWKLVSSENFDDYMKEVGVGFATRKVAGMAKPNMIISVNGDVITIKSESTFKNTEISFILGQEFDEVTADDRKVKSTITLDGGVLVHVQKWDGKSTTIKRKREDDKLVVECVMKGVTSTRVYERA", "assay": "Paranaric acid (lipid) binding to aP2", "conditions": "vs IgG control antibody, over pH", "procedure": "FIG. 10F is a line graph showing paranaric acid binding to aP2 (relative fluorescence) vs. pH in the presence of IgG control antibody (circles) or CA33 antibody (squares).\nIn further analysis, epitope identification based on hydrogen-deuterium exchange mass spectrometry experiments, for example, as described by Pandit et al. (2012) J. Mol. Recognit. […] Co-crystallization of the Fab fragments of CA33 and H3 with aP2 (FIG. 10D) was then conducted. […] Despite the partial blocking of H3 by CA33, we observed that there is in fact no direct overlap of their epitopes. Instead, the significant movement of the region around aP2 Phe58 may partially block binding of one antibody by the other in the competition experiments. In addition, the low affinity of the CA33 Fab can be explained by the crystal structure. Unusually, only one amino acid in the heavy chain of CA33 makes a contact with aP2, and the majority of the contacts are through the light chain (FIGS. 10D and 10E). In contrast, H3-aP2 contact is more conventional, with both Fab chains interacting with aP2. […] H3 does bind directly to the ‘lid’ but has limited activity. Binding of CA33 to lipid-bound aP2 or lipid-free aP2 was also examined using biochemical analysis (Biacore). CA33 binds to both lipid-bound aP2 and lipid-free aP2 with the following affinities: […]"}, "[2]": {"molecular_target": "T1, glucagon/aP2 complex in wild-type serum (Mus musculus, UniProt P04117)", "T1 construct": "from tissue; host or cells: serum of wild-type mice", "T1 sequence (P04117 1-132)": "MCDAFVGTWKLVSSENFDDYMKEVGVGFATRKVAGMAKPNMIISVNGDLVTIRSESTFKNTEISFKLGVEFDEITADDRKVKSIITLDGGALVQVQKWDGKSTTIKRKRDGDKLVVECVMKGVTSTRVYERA", "assay": "Co-immunoprecipitation of glucagon and aP2 from serum", "conditions": "pre-incubation of wild-type serum with antibody"}},
  "data": [
    {"molecule": "B1", "values": [
      {"measurement": "Effect on glucagon potentiation by aP2 (cAMP response, luminescence)", "setting": "human glucagon receptor", "value": "blocks the glucagon potentiation effect of aP2"},
      {"measurement": "Weight", "setting": "[1]; aP2−/− mice fed a HFD", "value": "failed to induce any change"},
      {"measurement": "Fasting glucose", "setting": "[1]; aP2−/− mice fed a HFD, three weeks treatment", "value": "failed to induce any change"},
      {"measurement": "Glucose tolerance (GTT)", "setting": "[1]; obese aP2−/− mice, after 2 weeks of treatment", "value": "did not affect glucose tolerance"},
      {"measurement": "Insulin levels", "setting": "ob/ob mice; ob/ob mice", "value": "lower insulin levels"},
      {"measurement": "Glucagon response", "setting": "ob/ob mice; ob/ob mice after 3 weeks of treatment", "value": "blunts the glucagon response"},
      {"measurement": "Hyperglycemia (fasting blood glucose)", "setting": "ob/ob mice; ob/ob mice, 3 weeks of treatment, vs controls", "value": "normalized"},
      {"measurement": "Glucose tolerance (GTT)", "setting": "ob/ob mice; ob/ob mice, after 2 weeks, vs vehicle", "value": "significantly improved glucose tolerance"},
      {"measurement": "Effect on lipid (paranaric acid) binding to aP2", "setting": "aP2", "value": "not substantially altered"},
      {"measurement": "Co-immunoprecipitation of glucagon and aP2", "setting": "[2]", "value": "prevents co-immunoprecipitation"}
    ]}
  ]
}
